Test results: US20070089183A1 (WASHINGTON STATE UNIVERSITY, published 2007)

Biological target: dansyl-CaM (Sigma) (Homo sapiens (Human), UniProt P0DP23 2-149)
Assay: fluorescence titration of dansyl-CaM with increasing amounts of peptide

Kd: 24.2 nM
Binder: CRKKYRAIGTFMSVYYKSKKGR (also called synthetic DWF1 CaMBD) [synthetic DWF1 CaM-binding peptide (518-539), CRKKYRAIGTFMSVYYKSKKGR]
